Source: publication PMC5360189 (Molecular cell, 2016)

Tests used:
Clo SugE = format: binding, Clostridiales bacterium oral taxon 876
purified protein [1] = substrate: N=C(N)N; assay: purified protein
purified protein [2] = substrate: NC(N)=O; assay: purified protein

| Molecule | Kd (Clo SugE) | Km (purified protein [1]) | Km (purified protein [2]) |
| --- | --- | --- | --- |
| N=C(N)N [guanidine] | ~1 mM | – | – |
| urea carboxylase (guanidine carboxylase) (Oleomonas sagaranensis) (protein) MFKKILIANRGEIAARVIKTARKMGIATVAVHSEADRFTLPVLAADEAICLGPAPAKESYLRAEAIVQACIDTGAEAVHPGYGFLSENAGFAEALAAKGIRFIGPRPEHLRDFGLKHTARALAEAAGVPLLPGTGILLSAEEALAAAHEIGYPVMLKSTAGGGGIGMSLCHDASELQARFEAVQRMASSSFGDARVYIERFVSTARHVEVQIFGDGKGNVVALGERDCSLQRRNQKVVEETPAPGLSPELRARLHAAAVALGKAVAYESAGTVEFIYDVARGDFSFLEVNTRLQVEHPVTESVFGVDLVEWMIRQAAGELLLPAQGSLVPRGAAIEVRLYAENPQANFRPQTGRLTEVAFPDDIRVDTWVATGTEVTPFYDPMLAKVIVTGADRPAAIAALSDALAKTKVWGIETNLAYLRAIAASDVFTSGAVSTAALGQFVFTAPTIEVIVAGAQTSVQDWPGRLGLWDVGVPPSGPFDDRSFRLANRILGNAEGAAGLECTLSGPTLKFHGDALIALAGAEMPAALDGVAVPMLTAIPVKAGQTLSLGQIKGAGQRTYLAVRGGIDGPKFLGARACFSLGQFGGHATGVLKAGDTLHIAAETAGEPMPADEKPLITRDWVIGVHYGPHGAPDFFQDADIDDLFAATYEVHFNSARTGVRLIGPKPRWARADGGEAGLHPSNIHDNAYAIGAIDFTGDMPIILGPDGPSLGGFVCPAVIARDELWKAGQLKPGDKVRFVPHGMAAPQVITSKDIGTPILGTIDGGPVPVVYRRAGDDYLLVEYGPMVLDIALRLRIHLLAQAVREARLPAIIDLTPGIRSLQIHYDSRVLKTATLVAALREIEAGLPPAEAVKVPSRIVHLPLSWNDPSIQLAARKYQELVRPNAPWCPSNIEFIRRINGLGSVDDVQNIIFDASYLVLGLGDVYLGAPVATPVDPRHRLVTTKYNPARTWTPENAVGIGGAYMCIYGMEGPGGYQLFGRTVQMWNAWRTTPVFTPGHPWLLRFFDQIRFFPVSEQELIEAREAFPHGRYPVRIEETTFDYAQHAAFLAAERPAIEAAKARQQTAFEVERQDWKARGLDSFVVEDGPAASDADVPEGQTPVEAQVTGNVWKIIAEEGTNVAAGDIVVIVESMKMEMEIRSPVAGKVTALRCQPGRTVQAGQIVALIEAA | – | 190 µM | 5200 µM |
